Assay results published in patent US12692310B2, “ASIC1 channel antagonist antibody” (ShanghaiTech University, priority 2019, dated 2026).

Columns and labels:
hASIC1a = target: T1, hASIC1a (Homo sapiens, UniProt P78348); test: Whole-cell patch clamp, acid-induced hASIC1a currents in stable CHO-K1 cells; assay type: cell-based
T1 construct: expressed in transfected cells
T1 sequence (P78348 1-528): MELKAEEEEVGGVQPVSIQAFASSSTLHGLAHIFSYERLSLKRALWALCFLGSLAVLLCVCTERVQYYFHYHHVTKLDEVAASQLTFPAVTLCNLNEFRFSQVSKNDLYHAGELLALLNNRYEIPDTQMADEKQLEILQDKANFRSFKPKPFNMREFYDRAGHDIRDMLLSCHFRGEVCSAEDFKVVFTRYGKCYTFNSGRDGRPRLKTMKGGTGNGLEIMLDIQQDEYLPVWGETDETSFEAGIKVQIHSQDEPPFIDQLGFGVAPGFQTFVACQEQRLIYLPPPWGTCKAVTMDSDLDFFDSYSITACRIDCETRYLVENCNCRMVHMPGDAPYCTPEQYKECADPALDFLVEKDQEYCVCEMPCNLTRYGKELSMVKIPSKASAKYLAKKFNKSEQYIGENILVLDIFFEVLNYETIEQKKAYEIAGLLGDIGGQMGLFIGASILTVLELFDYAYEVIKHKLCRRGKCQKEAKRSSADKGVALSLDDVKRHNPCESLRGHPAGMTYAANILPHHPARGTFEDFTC
Protocol: Electrophysiological Experiments. The inward cellular ASIC1a current was recorded from a single cell using standard whole-cell recording techniques by a patch-clamp amplifier (Axon 200B; Axon Instruments). Membrane currents were sampled and analyzed using a Digidata 1320A interface and a personal computer with Clampex and Clampfit software (Version 9.0.1; Axon Instruments). For a typical experiment, the extracellular fluid (ECF) used contained 150 mM NaCl, 5 mM KCl, 10 mM HEPES, 10 mM D-glucose, 2 mM CaCl2, and 1.0 mM MgCl2, with the osmotic pressure in the range of 320-335 mOsm, and pH 7.4 adjusted with 5 M NaOH. Patch electrodes (4-6 MΩ) contained 30 mM NaCl, 120 mM KCl, 0.5 mM CaCl2, 1 mM MgCl2, 10 mM HEPES, 2 mM MgATP, and 5 mM EGTA (pH 7.2 adjusted with 5 M KOH) at 300 mOsm. The ASIC1a activating ECF is identical to the normal ECF, except that MES was used to replace HEPES to maintain the ECF at pH 6.0. A coverslip with discretely distributed individual CHO-ASIC1a stable cells (6H7) on the surface was placed into a recording chamber under a constant perfusion (~2-3 mL/min) generated by an ALA 8 channel perfusion system (ALA Scientific Instruments Inc.) mounted on an inverted microscope. After achieving the break-in (whole-cell) configuration, the cell was voltage clamped at a holding potential of −70 mV. The normal ECF (pH 7.4) was first perfused onto the patched cell, and then, the activating ECF of pH 6.0 was rapidly applied to elicit a maximum inward ASIC1a current as control current. When testing the inhibition effect of the antibody, ECFs of pH 7.4 containing different concentrations of ASC06-IgG1 were perfused from low to high concentration into the recording chamber for 10-15 min. To measure the inhibition of the current, the activating ECFs of pH 6.0 containing the corresponding concentrations of the testing antibodies were applied to the same patched 6H7 cell to generate the inward currents that can be normalized to the control current of the same cell. […] Data acquired from four to five cells were used for statistical calculation of inhibition effects.
The function of ASC06-IgG1 was characterized using electrophysiology approach. The effect of ASC06-IgG1 antibody on the acid-induced, hASIC1a-mediated electrical current in cells was analyzed. PcTx1 was used as a positive control. […] The amplitudes of the hASIC1a-mediated inward currents of the stable cells were recorded and quantitated in the absence and presence of ASC06-IgG1, with venom peptide PcTx1 (100 nM) used as positive control. […] Unlike the sustained inhibition with the antibody after washing, the inhibition with PcTx1 could be readily washed out within 5 minutes (FIG. 5C).

hASIC1a-eYFP = target: T2, hASIC1a-eYFP (Homo sapiens, UniProt P78348); test: Species/subtype selectivity, FACS binding and ICC, transfected CHO-K1 cells; assay type: cell-based; parameters: overexpress the full-length hASIC1a (1-528 amino acids) protein fused with eYFP; expressed in transfected cells; host or cells: CHO-K1, transient
T2 sequence (P78348 1-528): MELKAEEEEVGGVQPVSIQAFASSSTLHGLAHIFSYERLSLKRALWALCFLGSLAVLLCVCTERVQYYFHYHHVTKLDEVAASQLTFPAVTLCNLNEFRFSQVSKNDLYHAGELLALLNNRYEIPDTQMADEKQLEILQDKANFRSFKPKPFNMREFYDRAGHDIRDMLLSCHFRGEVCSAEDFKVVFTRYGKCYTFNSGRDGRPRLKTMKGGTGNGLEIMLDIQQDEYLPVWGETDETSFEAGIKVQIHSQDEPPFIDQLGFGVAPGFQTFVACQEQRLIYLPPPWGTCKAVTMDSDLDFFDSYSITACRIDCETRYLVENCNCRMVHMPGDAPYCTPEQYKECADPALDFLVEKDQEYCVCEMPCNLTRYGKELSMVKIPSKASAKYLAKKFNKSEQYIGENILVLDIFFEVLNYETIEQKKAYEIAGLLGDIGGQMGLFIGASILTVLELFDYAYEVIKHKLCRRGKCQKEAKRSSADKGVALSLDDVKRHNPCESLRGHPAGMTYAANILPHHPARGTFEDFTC
Protocol: Cell Membrane Colocalization Studies Using Immunocytochemistry (ICC). Cells (CHO-K1) were seeded onto the poly-D-lysine-coated glass bottom 24-well plates at a concentration of 2×10^5 cells per mL. After 12 h of cultivation, the CHO-K1 cells were transfected with ASIC plasmids by Lipofectin 3000 reagent. Twenty-four hours after transfection, the cells were fixed in 4% paraformaldehyde and incubated for 30 min in a blocking solution (5% goat serum in PBS). The resulting cells were incubated with […] ASC06-IgG1 at 4° C. overnight followed by three PBS washes for 5 min each and incubation with the Alexa555-conjugated goat anti-human secondary antibody (Life Technology). After three additional PBS washes for 5 min each, the nuclei of the cells were stained with DAPI (#10236276001; Roche). The ICC analysis was performed on a laser scanning confocal microscopy (ZEISS LSM710) with a 63×N.A. 1.4 objective at 25° C. Images were collected on a 1,024×1,024-pixel EM-CCD camera. […]
To test the species and subtype selectivity of ASC06-IgG1, vectors encoding human ASIC1b-eYFP fusion, rat ASIC1a-eYFP fusion, mouse ASIC1a-eYFP fusion, hASIC2a-eYFP fusion, hASIC2b-eYFP fusion, and hASIC3a-eYFP fusion were constructed. […] FACS binding assay and immunocytochemistry (ICC) were carried out to determine if ASC06-IgG1 is able to bind to the cell surface-expressed ASIC homologs and isotypes.

B1: ASC06-IgG1: ASC06 antibody converted into a full length IgG1 form (antibody, V domains shown)
VH: QVQLQQSGGGLVQPGGSLRLSCAASGFTFSSYAMSWVRQAPGKGLEWVSAISGSGGSTYYADSVKGRFTISRDNSKNTLYLQMNSLRAEDTAVYYCAKDSFYGYSKGDWGQGTLVTVSS
VL: QSALTQPASVSGSPGQSITISCTGTSSDVGAYNYVSWYQQQPGKAPKLMIYGVSNRPSGVSNRFSGSKSGNAASLTISGLQAEDEADYYCSSYTSSSTYVFGTGTKLTVLG
- duration of sustained inhibition during washout (hASIC1a; after washing): 30 min
- maximal inhibition of the acid (pH 6.0)-induced currents (hASIC1a; dose-dependent): up to 80%
- FACS recognition of human ASIC1a (hASIC1a-eYFP; FACS): recognized
- ICC membrane co-localization with hASIC1a-eYFP (hASIC1a-eYFP; ICC staining): membrane co-localization
